Measured values published in patent US20240409618A1.

Biological target: SARS-CoV-2 spike protein (isolate USA-WA1/2020) on pseudotyped virus (SARS-CoV-2 (USA-WA1/2020)) (UniProt P0DTC2)
Assay: cell-based or functional assay

DMAb 2130_FcTM (antibody)
serum potency (IC50), neutralization of WA1/2020 pseudovirus: 1 to 2 ng/mL
